Measured values: US20190144529A1 (UCB, published 2019)

biological target: T1, human serum albumin (human, UniProt P02768 25-609); experiment: SPR, Fab captured; albumin taken as HSA;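 further: antibody held on a capture surface, albumin injected for 3 min association then dissociation followed, signals corrected using a blank reference flow cell and buffer-only injections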
T1 construct: mature; Bought purified serum albumin; also called HSA; Human albumin
Experimental: Each assay cycle consisted of firstly capturing the antibody sample using a 1 min injection, before an association phase consisting of a 3 min injection of albumin, after which dissociation was monitored. After each cycle, the capture surface was regenerated with two 1 min injections of 40 mM HCl followed by 30 s of 5 mM NaOH. The flow rates used were 10 μl/min for capture, 30 μl/min for both the association and dissociation phases, and 10 μl/min for regeneration. A blank flow-cell was used for reference subtraction and buffer-blank injections were included to subtract instrument noise and drift.

| Binder | Kd [nM] | koff [s⁻¹] | kon [M⁻¹ s⁻¹] |
| --- | --- | --- | --- |
| CA645 gL4gH27 Fab (Fab, V domains shown, Fab: human gamma1 CH1, human kappa (Km3); Kabat numbering) VH: EVQLLESGGGLVQPGGSLRLSCAVSGIDLSNYAINWVRQAPGKGLEWIGIIWGSGTTFYATWAKGRFTISRDNSKNTVYLQMNSLRAEDTAVYYCARTVPGYSTAPYFDLWGQGTLVTVSS VL: DIQMTQSPSSVSASVGDRVTITCQSSPSVWSNFLSWYQQKPGKAPKLLIYEASKLTSGVPSRFSGSGSGTDFTLTISSLQPEDFATYYCGGGYSSISDTTFGGGTKVEIK | 1.73 | 8.4e-05 | 48300 |
| CA645 gL4gH40 Fab (Fab, V domains shown, Fab: human gamma1 CH1, human kappa (Km3); Kabat numbering) VH: EVQLLESGGGLVQPGGSLRLSCAVSGIDLSNYAINWVRQAPGKGLEWIGIIWASGTTFYATWAKGRFTISRDNSKNTVYLQMNSLRAEDTAVYYCARTVPTYSTAPYFDLWGQGTLVTVSS VL: DIQMTQSPSSVSASVGDRVTITCQSSPSVWSNFLSWYQQKPGKAPKLLIYEASKLTSGVPSRFSGSGSGTDFTLTISSLQPEDFATYYCGGGYSSISDTTFGGGTKVEIK | 6.4 | 0.000356 | 55600 |
| CA645 gL34gH5 Fab (Fab, V domains shown, Fab: human gamma1 CH1, human kappa (Km3); Kabat numbering) VH: EVQLLESGGGLVQPGGSLRLSCAVSGIDLSNYAINWVRQAPGKGLEWIGIIWASGTTFYATWAKGRFTISRDNSKNTVYLQMNSLRAEDTAVYYCARTVPGYSTAPYFDLWGQGTLVTVSS VL: DIQMTQSPSSVSASVGDRVTITCQSSPSVWSNFLSWYQQKPGKAPKLLIYEASKLTSGVPSRFSGSGSGTDFTLTISSLQPEDFATYYCGGGYTSISDTTFGGGTKVEIK | 3.41 | 0.00019 | 55800 |
| CA645 gL4gH42 Fab (Fab, V domains shown, Fab: human gamma1 CH1, human kappa (Km3); Kabat numbering) VH: EVQLLESGGGLVQPGGSLRLSCAVSGIDLSNYAINWVRQAPGKGLEWIGIIWASGTTFYATWAKGRFTISRDNSKNTVYLQMNSLRAEDTAVYYCARTVPQYSTAPYFDLWGQGTLVTVSS VL: DIQMTQSPSSVSASVGDRVTITCQSSPSVWSNFLSWYQQKPGKAPKLLIYEASKLTSGVPSRFSGSGSGTDFTLTISSLQPEDFATYYCGGGYSSISDTTFGGGTKVEIK | 4.17 | 0.000222 | 53100 |
| CA645 gL4gH44 Fab (Fab, V domains shown, Fab: human gamma1 CH1, human kappa (Km3); Kabat numbering) VH: EVQLLESGGGLVQPGGSLRLSCAVSGIDLSNYAINWVRQAPGKGLEWIGIIWASGTTFYATWAKGRFTISRDNSKNTVYLQMNSLRAEDTAVYYCARTVPLYSTAPYFDLWGQGTLVTVSS VL: DIQMTQSPSSVSASVGDRVTITCQSSPSVWSNFLSWYQQKPGKAPKLLIYEASKLTSGVPSRFSGSGSGTDFTLTISSLQPEDFATYYCGGGYSSISDTTFGGGTKVEIK | 4.22 | 0.000226 | 53500 |
| CA645 gL4gH30 Fab (Fab, V domains shown, Fab: human gamma1 CH1, human kappa (Km3); Kabat numbering) VH: EVQLLESGGGLVQPGGSLRLSCAVSGIDLSNYAINWVRQAPGKGLEWIGIIWTSGTTFYATWAKGRFTISRDNSKNTVYLQMNSLRAEDTAVYYCARTVPGYSTAPYFDLWGQGTLVTVSS VL: DIQMTQSPSSVSASVGDRVTITCQSSPSVWSNFLSWYQQKPGKAPKLLIYEASKLTSGVPSRFSGSGSGTDFTLTISSLQPEDFATYYCGGGYSSISDTTFGGGTKVEIK | 23.2 | 0.00102 | 43800 |
| CA645 gL4gH29 Fab (Fab, V domains shown, Fab: human gamma1 CH1, human kappa (Km3); Kabat numbering) VH: EVQLLESGGGLVQPGGSLRLSCAVSGIDLSNYAINWVRQAPGKGLEWIGIIWSSGTTFYATWAKGRFTISRDNSKNTVYLQMNSLRAEDTAVYYCARTVPGYSTAPYFDLWGQGTLVTVSS VL: DIQMTQSPSSVSASVGDRVTITCQSSPSVWSNFLSWYQQKPGKAPKLLIYEASKLTSGVPSRFSGSGSGTDFTLTISSLQPEDFATYYCGGGYSSISDTTFGGGTKVEIK | 7.97 | 0.00038 | 47700 |
| CA645 gL4gH43 Fab (Fab, V domains shown, Fab: human gamma1 CH1, human kappa (Km3); Kabat numbering) VH: EVQLLESGGGLVQPGGSLRLSCAVSGIDLSNYAINWVRQAPGKGLEWIGIIWASGTTFYATWAKGRFTISRDNSKNTVYLQMNSLRAEDTAVYYCARTVPEYSTAPYFDLWGQGTLVTVSS VL: DIQMTQSPSSVSASVGDRVTITCQSSPSVWSNFLSWYQQKPGKAPKLLIYEASKLTSGVPSRFSGSGSGTDFTLTISSLQPEDFATYYCGGGYSSISDTTFGGGTKVEIK | 7.39 | 0.000391 | 52900 |

More lines, in order of falling Kd, values ahead:

| Kd [nM] | koff [s⁻¹] | kon [M⁻¹ s⁻¹] | Binder |
| --- | --- | --- | --- |
| 14 | 0.00075 | 53500 | CA645 gL4gH39 Fab (Fab, V domains shown, Fab: human gamma1 CH1, human kappa (Km3); Kabat numbering) VH: EVQLLESGGGLVQPGGSLRLSCAVSGIDLSNYAINWVRQAPGKGLEWIGIIWASGTTFYATWAKGRFTISRDNSKNTVYLQMNSLRAEDTAVYYCARTVPIYSTAPYFDLWGQGTLVTVSS VL: DIQMTQSPSSVSASVGDRVTITCQSSPSVWSNFLSWYQQKPGKAPKLLIYEASKLTSGVPSRFSGSGSGTDFTLTISSLQPEDFATYYCGGGYSSISDTTFGGGTKVEIK |
| 12.2 | 0.000581 | 47500 | CA645 gL4gH38 Fab (Fab, V domains shown, Fab: human gamma1 CH1, human kappa (Km3); Kabat numbering) VH: EVQLLESGGGLVQPGGSLRLSCAVSGIDLSNYAINWVRQAPGKGLEWIGIIWASGTTYYATWAKGRFTISRDNSKNTVYLQMNSLRAEDTAVYYCARTVPGYSTAPYFDLWGQGTLVTVSS VL: DIQMTQSPSSVSASVGDRVTITCQSSPSVWSNFLSWYQQKPGKAPKLLIYEASKLTSGVPSRFSGSGSGTDFTLTISSLQPEDFATYYCGGGYSSISDTTFGGGTKVEIK |
| 10.6 | 0.000515 | 48500 | CA645 gL4gH28 Fab (Fab, V domains shown, Fab: human gamma1 CH1, human kappa (Km3); Kabat numbering) VH: EVQLLESGGGLVQPGGSLRLSCAVSGIDLSNYAINWVRQAPGKGLEWIGIIWVSGTTFYATWAKGRFTISRDNSKNTVYLQMNSLRAEDTAVYYCARTVPGYSTAPYFDLWGQGTLVTVSS VL: DIQMTQSPSSVSASVGDRVTITCQSSPSVWSNFLSWYQQKPGKAPKLLIYEASKLTSGVPSRFSGSGSGTDFTLTISSLQPEDFATYYCGGGYSSISDTTFGGGTKVEIK |
| 9.44 | 0.000586 | 62100 | CA645 gL27gH5 Fab (Fab, V domains shown, Fab: human gamma1 CH1, human kappa (Km3); Kabat numbering) VH: EVQLLESGGGLVQPGGSLRLSCAVSGIDLSNYAINWVRQAPGKGLEWIGIIWASGTTFYATWAKGRFTISRDNSKNTVYLQMNSLRAEDTAVYYCARTVPGYSTAPYFDLWGQGTLVTVSS VL: DIQMTQSPSSVSASVGDRVTITCQSSPSVWSNYLSWYQQKPGKAPKLLIYEASKLTSGVPSRFSGSGSGTDFTLTISSLQPEDFATYYCGGGYSSISDTTFGGGTKVEIK |
| 8.25 | 0.000444 | 53800 | CA645 gL4gH45 Fab (Fab, V domains shown, Fab: human gamma1 CH1, human kappa (Km3); Kabat numbering) VH: EVQLLESGGGLVQPGGSLRLSCAVSGIDLSNYAINWVRQAPGKGLEWIGIIWASGTTFYATWAKGRFTISRDNSKNTVYLQMNSLRAEDTAVYYCARTVPVYSTAPYFDLWGQGTLVTVSS VL: DIQMTQSPSSVSASVGDRVTITCQSSPSVWSNFLSWYQQKPGKAPKLLIYEASKLTSGVPSRFSGSGSGTDFTLTISSLQPEDFATYYCGGGYSSISDTTFGGGTKVEIK |
| 6.54 | 0.000351 | 53700 | CA645 gL4gH41 Fab (Fab, V domains shown, Fab: human gamma1 CH1, human kappa (Km3); Kabat numbering) VH: EVQLLESGGGLVQPGGSLRLSCAVSGIDLSNYAINWVRQAPGKGLEWIGIIWASGTTFYATWAKGRFTISRDNSKNTVYLQMNSLRAEDTAVYYCARTVPDYSTAPYFDLWGQGTLVTVSS VL: DIQMTQSPSSVSASVGDRVTITCQSSPSVWSNFLSWYQQKPGKAPKLLIYEASKLTSGVPSRFSGSGSGTDFTLTISSLQPEDFATYYCGGGYSSISDTTFGGGTKVEIK |
| 5.57 | 0.00029 | 52100 | CA645 gL35gH5 Fab (Fab, V domains shown, Fab: human gamma1 CH1, human kappa (Km3); Kabat numbering) VH: EVQLLESGGGLVQPGGSLRLSCAVSGIDLSNYAINWVRQAPGKGLEWIGIIWASGTTFYATWAKGRFTISRDNSKNTVYLQMNSLRAEDTAVYYCARTVPGYSTAPYFDLWGQGTLVTVSS VL: DIQMTQSPSSVSASVGDRVTITCQSSPSVWSNFLSWYQQKPGKAPKLLIYEASKLTSGVPSRFSGSGSGTDFTLTISSLQPEDFATYYCGGGYVSISDTTFGGGTKVEIK |
| 1.88 | 0.000108 | 57600 | CA645 gL13gH5 Fab (Fab, V domains shown, Fab: human gamma1 CH1, human kappa (Km3); Kabat numbering) VH: EVQLLESGGGLVQPGGSLRLSCAVSGIDLSNYAINWVRQAPGKGLEWIGIIWASGTTFYATWAKGRFTISRDNSKNTVYLQMNSLRAEDTAVYYCARTVPGYSTAPYFDLWGQGTLVTVSS VL: DIQMTQSPSSVSASVGDRVTITCQSSPIVWSNFLSWYQQKPGKAPKLLIYEASKLTSGVPSRFSGSGSGTDFTLTISSLQPEDFATYYCGGGYSSISDTTFGGGTKVEIK |
| 1.88 | 0.000104 | 55400 | CA645 gL12gH5 Fab (Fab, V domains shown, Fab: human gamma1 CH1, human kappa (Km3); Kabat numbering) VH: EVQLLESGGGLVQPGGSLRLSCAVSGIDLSNYAINWVRQAPGKGLEWIGIIWASGTTFYATWAKGRFTISRDNSKNTVYLQMNSLRAEDTAVYYCARTVPGYSTAPYFDLWGQGTLVTVSS VL: DIQMTQSPSSVSASVGDRVTITCQSSPDVWSNFLSWYQQKPGKAPKLLIYEASKLTSGVPSRFSGSGSGTDFTLTISSLQPEDFATYYCGGGYSSISDTTFGGGTKVEIK |
| 1.51 | 8.7e-05 | 57700 | CA645 gL14gH5 Fab (Fab, V domains shown, Fab: human gamma1 CH1, human kappa (Km3); Kabat numbering) VH: EVQLLESGGGLVQPGGSLRLSCAVSGIDLSNYAINWVRQAPGKGLEWIGIIWASGTTFYATWAKGRFTISRDNSKNTVYLQMNSLRAEDTAVYYCARTVPGYSTAPYFDLWGQGTLVTVSS VL: DIQMTQSPSSVSASVGDRVTITCQSSPLVWSNFLSWYQQKPGKAPKLLIYEASKLTSGVPSRFSGSGSGTDFTLTISSLQPEDFATYYCGGGYSSISDTTFGGGTKVEIK |
| 1.03 | 0.000172 | 138000 | CA645 gL10gH5 Fab (Fab, V domains shown, Fab: human gamma1 CH1, human kappa (Km3); Kabat numbering) VH: EVQLLESGGGLVQPGGSLRLSCAVSGIDLSNYAINWVRQAPGKGLEWIGIIWASGTTFYATWAKGRFTISRDNSKNTVYLQMNSLRAEDTAVYYCARTVPGYSTAPYFDLWGQGTLVTVSS VL: DIQMTQSPSSVSASVGDRVTITCQSSPAVWSNFLSWYQQKPGKAPKLLIYEASKLTSGVPSRFSGSGSGTDFTLTISSLQPEDFATYYCGGGYSSISDTTFGGGTKVEIK |
